Molecular target: human CD28 (human, UniProt P10747 19-152)
Experiment: -; scFv VHVL

B1: 1A7_H1.14_L1 (antibody, V domains shown)
VH: EVQLLESGGGLVQPGGSLRLSCAASGFTFSSYYMSWVRQAPGKGLEWVSTISESGDSTYYADSVKGRFTISRDNSKNTLYLQMNSLRAEDTAVYYCAKSGPGLRQVGFDYWGQGTLVTVSS
VL: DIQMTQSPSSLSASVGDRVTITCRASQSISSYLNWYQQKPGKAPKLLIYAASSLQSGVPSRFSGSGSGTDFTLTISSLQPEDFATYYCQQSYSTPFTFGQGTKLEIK
Kd: 230 nM
